Data on 1 substance can be found in patent US20230220104A1.

Holding throughout (assay): cell-based or functional assay
The target of experiment [1] is human CD73 on cells (H322, MDA-MB-231, HT-144, T cells, CD73-transfected HEK293T) (human) (UniProt P21589).
The target is the same in experiment [2]. This is another data set of the same source.
Experiment [3] shares this target. This is another data set of the same source.

Where two headings read alike, the source gives them in different places.

Sequence of human CD73 on cells (H322, MDA-MB-231, HT-144, T cells, CD73-transfected HEK293T) (human) (P21589 27-549): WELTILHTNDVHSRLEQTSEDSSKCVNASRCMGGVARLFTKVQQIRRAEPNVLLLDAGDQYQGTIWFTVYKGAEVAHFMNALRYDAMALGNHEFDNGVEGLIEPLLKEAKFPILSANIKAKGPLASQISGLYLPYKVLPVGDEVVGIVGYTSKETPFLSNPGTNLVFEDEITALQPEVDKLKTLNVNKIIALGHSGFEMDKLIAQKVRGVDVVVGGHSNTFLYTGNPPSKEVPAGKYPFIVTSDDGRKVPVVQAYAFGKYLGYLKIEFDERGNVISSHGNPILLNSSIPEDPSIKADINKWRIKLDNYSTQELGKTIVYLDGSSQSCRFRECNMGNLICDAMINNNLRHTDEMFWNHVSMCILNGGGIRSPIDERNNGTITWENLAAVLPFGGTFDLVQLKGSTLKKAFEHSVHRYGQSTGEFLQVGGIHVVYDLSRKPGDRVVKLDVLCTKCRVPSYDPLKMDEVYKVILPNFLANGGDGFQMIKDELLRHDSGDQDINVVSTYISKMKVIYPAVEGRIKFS

Turning to “Benchmark antibody (antibody having the same sequences as the published variable regions of MEDI9447)”, the results for the IC50 of AMP degradation suppressive function, H322 cells in experiment [1], in experiment [2] and in experiment [3] were 0.04 µg/mL, 0.091 µg/mL and 0.02 µg/mL, respectively. Besides, the IC50 of AMP degradation suppressive function (cell line of Table 7 not stated; H322 in FIG. 12) in experiment [2] was 0.007 µg/mL. Further, the IC50 of AMP degradation suppressive function, MDA-MB-231 cells in experiment [2] is 0.111 µg/mL.
